PMC10853778 (Nucleic Acids Research, 2022)
Each block holds one molecule with its values, some of them ahead of it.

Assays:
[1] = target: HA-tagged human RTEL1 HHD1+2 deletion construct (human) (UniProt Q9NZ71); assay: co-IP; whole-cell extracts of HEK293T cells overexpressing HA-tagged RTEL1 constructs; IP overnight at 4°C (anti-HA), protein G agarose, immunoblot for RPA; with or without 100 units Benzonase
RTEL1 HHD2 [2] = target: T1, RTEL1 HHD2 (Homo sapiens, UniProt Q9NZ71-6 1056-1140); assay: NMR titration; pH 7.4; NMR: 20 mM Tris-HCl pH 7.4, 50 mM NaCl, 2 mM DTT, 0.02% NaN3, 10% D2O, 25 C (one ssDNA-22 titration at pH 6.5); ITC: 10 mM potassium phosphate pH 6.5, 50 mM KCl, 0.02% NaN3, 25 C; conditions: protein: recombinant; tags: N-terminal 6xHis; single strand
T1 sequence: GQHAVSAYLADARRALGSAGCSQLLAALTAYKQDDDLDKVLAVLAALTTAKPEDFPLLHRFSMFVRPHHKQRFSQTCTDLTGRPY

RTEL1 HHD2 [3] = target: T1, RTEL1 HHD2; assay: NMR titration (TITAN); pH 6.5; NMR: 20 mM Tris-HCl pH 7.4, 50 mM NaCl, 2 mM DTT, 0.02% NaN3, 10% D2O, 25 C (one ssDNA-22 titration at pH 6.5); ITC: 10 mM potassium phosphate pH 6.5, 50 mM KCl, 0.02% NaN3, 25 C; conditions: protein: recombinant; tags: N-terminal 6xHis; single strand
RTEL1 HHD1 = target: T2, RTEL1 HHD1 (Homo sapiens, UniProt Q9NZ71-6 886-978); assay: NMR titration; NMR: 20 mM Tris-HCl pH 7.4, 50 mM NaCl, 2 mM DTT, 0.02% NaN3, 10% D2O, 25 C (one ssDNA-22 titration at pH 6.5); ITC: 10 mM potassium phosphate pH 6.5, 50 mM KCl, 0.02% NaN3, 25 C; conditions: protein: recombinant; tags: N-terminal 6xHis; single strand
T2 sequence: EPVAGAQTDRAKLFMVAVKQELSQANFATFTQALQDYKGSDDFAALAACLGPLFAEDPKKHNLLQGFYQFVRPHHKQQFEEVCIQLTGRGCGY

RTEL1 HHD2 [4] = target: T1, RTEL1 HHD2; assay: NMR titration (TITAN); pH 7.4; NMR: 20 mM Tris-HCl pH 7.4, 50 mM NaCl, 2 mM DTT, 0.02% NaN3, 10% D2O, 25 C (one ssDNA-22 titration at pH 6.5); ITC: 10 mM potassium phosphate pH 6.5, 50 mM KCl, 0.02% NaN3, 25 C; conditions: protein: recombinant, tags: N-terminal 6xHis
RTEL1 HHD2 [5] = target: T1, RTEL1 HHD2; assay: ITC; pH 6.5; NMR: 20 mM Tris-HCl pH 7.4, 50 mM NaCl, 2 mM DTT, 0.02% NaN3, 10% D2O, 25 C (one ssDNA-22 titration at pH 6.5); ITC: 10 mM potassium phosphate pH 6.5, 50 mM KCl, 0.02% NaN3, 25 C; conditions: protein: recombinant, tags: N-terminal 6xHis
[6] = target: T3, RPA 32C winged-helix domain (residues 172-270 of RPA32) (human, UniProt P15927 172-270); assay: NMR titration; 15N-labelled partner titrated with unlabelled partner; 1H-15N HSQC, 25°C, 20 mM Tris-HCl pH 7.4, 50 mM NaCl, 2 mM DTT, 0.02% NaN3; Kd and Koff from TITAN 2D lineshape analysis, two-state model; conditions: both partners purified
T3 construct: RPA32 (RPA2), human, residues 172-270 (winged-helix 32C domain); pET-15b; uniformly 15N-labelled where it was the observed partner; source: E. coli BL21(DE3) pLysS, purified (Ni-NTA, Q column, SEC); not shown: His6, N-terminal, kept
T3 sequence (P15927 172-270): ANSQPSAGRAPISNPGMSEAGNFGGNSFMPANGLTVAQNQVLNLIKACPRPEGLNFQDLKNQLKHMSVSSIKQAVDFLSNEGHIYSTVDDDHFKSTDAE

reduction of co-immunoprecipitated RPA against full-length HA-RTEL1 [1]: 80%
Molecule: endogenous replication protein A (RPA) of HEK293T cells (from UniProt P27694 1-616; P15927 1-270; P35244 1-121) (complex)

Molecule: TTAGGA (ssDNA) [ssDNA-6]
binding result (RTEL1 HHD2 [2]): no binding

Molecule: AGGATTAGGATTAGGATTAGGA (ssDNA) [ssDNA-22]
Kd (RTEL1 HHD2 [3]): 3030 ± 640 nM
binding result (RTEL1 HHD1): no binding
Kd (RTEL1 HHD2 [4]; single strand): 14600 ± 1210 nM
Kd (RTEL1 HHD2 [5]; single strand): 940 ± 130 nM

B1: 3'ss_dsDNA-24 (mixed)
DNA 1: TTAGGCAGAGAGAGAGAGTTAGGC
DNA 2: CTCTCTCTCTCTGCCTAA
Kd (RTEL1 HHD2 [5]; 3' overhang 6 nt (strand 1)): 1220 ± 90 nM

B2: dsDNA-22 (dsDNA)
DNA 1: AGGATTAGGATTAGGATTAGGA
DNA 2: TCCTAATCCTAATCCTAATCCT
Kd (RTEL1 HHD2 [4]; blunt): 19700 ± 4670 nM

Molecule: TTAGGCAGAGAGAGAGAGTTAGGC (ssDNA) [ssDNA-24]
Kd (RTEL1 HHD2 [5]; single strand): 1320 ± 150 nM

Kd [6]: 360000 nM
koff [6]: 8460 s⁻¹
B3: RTEL1 harmonin homology domain 2 (residues 1056-1140) (domain or fragment, human, UniProt Q9NZ71-6 1056-1140, looked up)
chain: GQHAVSAYLADARRALGSAGCSQLLAALTAYKQDDDLDKVLAVLAALTTAKPEDFPLLHRFSMFVRPHHKQRFSQTCTDLTGRPY
notes: RTEL1, human, residues 1056-1140 (HHD2) of Uniprot Q9NZ71-6; uniformly 15N-labelled where it was the observed partner; also called HHD2; RTEL1 HHD2; source: E. coli Rosetta (DE3), purified (Ni-NTA, heparin, SEC); not shown: His6, N-terminal, kept

Molecule: TTAGGATTAGGA (ssDNA) [ssDNA-12]
Kd (RTEL1 HHD2 [5]; single strand): 1510 ± 140 nM

B4: dsDNA-24 (dsDNA)
DNA 1: TTAGGCAGAGAGAGAGAGTTAGGC
DNA 2: GCCTAACTCTCTCTCTCTGCCTAA
Kd (RTEL1 HHD2 [5]; blunt): 1950 ± 310 nM

B5: 5'ss_dsDNA-24 (mixed)
DNA 1: TTAGGCAGAGAGAGAGAGTTAGGC
DNA 2: GCCTAACTCTCTCTCTCT
Kd (RTEL1 HHD2 [5]; 5' overhang 6 nt (strand 1)): 2580 ± 270 nM
